Data published in patent US7740850B2, “PDGFRβ-specific antibodies” (ImClone, LLC, priority 2007, dated 2010).

B1: 2C5: PDGFRβ-specific human antibody binding both human and murine PDGFRβ; SEQ ID NOS in Table 1 (antibody, listed as Homo sapiens, V domains shown)
VH: QVQLVQSGAEVKKPGSSVKVSCKASGGTFSSYAISWVRQAPGQGLEWMGRIIPILGIANYAQKFQGRVTITADKSTSTAYMELSSLRSEDTAVYYCARDMGSRNYYYFYWGQGTLVTVSS
VL: EIVLTQSPATLSLSPGERATLSCRASQSVGRYLAWYQQKPGQAPRLLIYGASNRATGIPARFSGSGSGTDFTLTISSLEPEDFAVYYCQQRSNWPLTFGGGTKVEIK
B2: 1B3: human anti-mouse PDGFRβ antibody from Fab phage display library, human κ/γ1 constant regions; SEQ ID NOS in Table 1 (antibody, listed as Homo sapiens, V domains shown)
VH: QVQLQESGGGLVKPGGSLRLSCAASGFTFSSYSMNWVRQAPGKGLEWVSSISSSSSYIYYADSVKGRFTISRDNSKNTLYLQMNSLRAEDTAVYYCAKGGRPLLVFDFWGQGTLVTVS
VL: EIVMTQSPGTLSLSPGERATLSCRASQSVSSSYLAWYQQKPGQAPRLLIYDASKRATGIPARFSGSGSGTDFTLTISTLESEDSAVYYCQQRGYWPPITFGQGTRLEIKR
modifications: human kappa/gamma1 constant regions

Legend:
mPDGFRβ = mPDGFRβ (Mus musculus, UniProt P05622); experiment: Antibody affinity determination (BIAcore, surface plasmon resonance); type: binding
Sequence of mPDGFRβ (P05622 32-1098): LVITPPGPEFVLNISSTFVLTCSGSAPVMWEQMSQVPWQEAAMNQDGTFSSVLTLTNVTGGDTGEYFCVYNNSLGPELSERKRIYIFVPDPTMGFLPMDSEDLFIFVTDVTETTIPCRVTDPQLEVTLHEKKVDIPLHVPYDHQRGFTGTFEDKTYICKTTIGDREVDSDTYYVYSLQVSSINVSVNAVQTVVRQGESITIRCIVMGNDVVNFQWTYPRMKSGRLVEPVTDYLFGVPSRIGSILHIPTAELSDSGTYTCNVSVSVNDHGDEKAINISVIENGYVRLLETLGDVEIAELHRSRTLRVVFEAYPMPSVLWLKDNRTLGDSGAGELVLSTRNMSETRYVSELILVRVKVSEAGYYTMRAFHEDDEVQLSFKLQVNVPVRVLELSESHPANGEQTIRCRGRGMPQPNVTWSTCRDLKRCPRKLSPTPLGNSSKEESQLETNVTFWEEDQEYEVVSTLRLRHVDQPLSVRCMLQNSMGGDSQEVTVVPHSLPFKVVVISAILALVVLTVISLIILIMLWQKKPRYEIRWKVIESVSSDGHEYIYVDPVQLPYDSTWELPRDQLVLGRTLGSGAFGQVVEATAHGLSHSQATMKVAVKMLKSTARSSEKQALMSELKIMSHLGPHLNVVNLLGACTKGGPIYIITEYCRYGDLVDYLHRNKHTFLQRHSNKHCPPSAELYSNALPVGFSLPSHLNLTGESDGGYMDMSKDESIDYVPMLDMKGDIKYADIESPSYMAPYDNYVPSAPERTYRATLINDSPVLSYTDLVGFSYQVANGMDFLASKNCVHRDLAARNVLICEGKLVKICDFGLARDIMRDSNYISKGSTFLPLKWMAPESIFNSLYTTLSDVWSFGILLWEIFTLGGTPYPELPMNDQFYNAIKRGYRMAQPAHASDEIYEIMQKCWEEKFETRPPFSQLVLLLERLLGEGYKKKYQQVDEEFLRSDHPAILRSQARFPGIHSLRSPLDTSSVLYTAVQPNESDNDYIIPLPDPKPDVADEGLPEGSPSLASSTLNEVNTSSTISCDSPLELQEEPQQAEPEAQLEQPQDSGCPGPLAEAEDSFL
Procedure: (§1) Antibody affinity determination. The binding kinetics of various Fab and IgG to mPDGFRβ were measured using a BIAcore 3000 biosensor (BIACORE, Inc., Uppsala, Sweden). Briefly, mPDGFRβ was immobilized onto a sensor chip and soluble antibodies were injected at concentrations ranging from 1.5 nM to 100 nM. Sensorgrams were obtained at each concentration and were evaluated using the program, BIA Evaluation 2.0. The affinity constant, Kd, was calculated from the ratio of dissociation rate (koff)/association rate (kon) (Lu, D. et al., 2002; Zhu, Z. et al., 1998; Loizos, N. et al., 2005).

hPDGFRβ = hPDGFRβ (Homo sapiens, UniProt P09619); experiment: as above; type: binding; conditions: one experiment
Sequence of hPDGFRβ (P09619 33-1106): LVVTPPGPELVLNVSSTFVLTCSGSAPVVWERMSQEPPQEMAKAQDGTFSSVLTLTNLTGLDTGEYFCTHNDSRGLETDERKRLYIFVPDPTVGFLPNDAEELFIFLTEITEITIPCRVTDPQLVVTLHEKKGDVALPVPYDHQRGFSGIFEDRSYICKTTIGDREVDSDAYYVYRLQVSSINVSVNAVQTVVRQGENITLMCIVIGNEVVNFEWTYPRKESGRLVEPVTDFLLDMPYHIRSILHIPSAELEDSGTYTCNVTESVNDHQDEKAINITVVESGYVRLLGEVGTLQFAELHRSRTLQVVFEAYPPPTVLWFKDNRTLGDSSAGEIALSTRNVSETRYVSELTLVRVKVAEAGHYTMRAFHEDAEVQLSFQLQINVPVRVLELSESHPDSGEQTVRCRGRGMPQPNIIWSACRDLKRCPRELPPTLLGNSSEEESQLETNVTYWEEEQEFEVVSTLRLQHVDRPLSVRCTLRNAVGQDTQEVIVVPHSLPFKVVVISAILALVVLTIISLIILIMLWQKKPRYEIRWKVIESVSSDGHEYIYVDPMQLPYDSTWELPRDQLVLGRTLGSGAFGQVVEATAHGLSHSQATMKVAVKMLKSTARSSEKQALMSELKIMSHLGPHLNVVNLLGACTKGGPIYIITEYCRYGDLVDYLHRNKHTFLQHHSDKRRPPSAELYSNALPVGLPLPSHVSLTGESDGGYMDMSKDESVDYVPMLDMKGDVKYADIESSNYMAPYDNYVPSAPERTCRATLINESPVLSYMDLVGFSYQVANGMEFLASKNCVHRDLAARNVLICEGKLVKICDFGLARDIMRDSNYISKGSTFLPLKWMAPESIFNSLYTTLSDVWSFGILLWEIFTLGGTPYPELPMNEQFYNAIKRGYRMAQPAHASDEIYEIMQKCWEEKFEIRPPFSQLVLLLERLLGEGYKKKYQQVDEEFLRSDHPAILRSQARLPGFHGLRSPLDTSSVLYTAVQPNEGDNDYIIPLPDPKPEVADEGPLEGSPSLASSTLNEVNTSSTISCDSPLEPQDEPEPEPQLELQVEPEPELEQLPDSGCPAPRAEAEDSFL
Procedure: as §1
As determined by BIAcore analysis, 2C5 binds to hPDGFRβ with similar binding characteristics as 1B3 binds to mPDGFRβ. […] However, whereas 1B3 binds to murine PDGFRβ but not human PDGFRβ, 2C5 binds to both proteins. (FIG. 6).

human PDGFRα = human PDGFRα (Homo sapiens, UniProt P16234); experiment: Binding to PDGFRα
Sequence of human PDGFRα (P16234 24-1089): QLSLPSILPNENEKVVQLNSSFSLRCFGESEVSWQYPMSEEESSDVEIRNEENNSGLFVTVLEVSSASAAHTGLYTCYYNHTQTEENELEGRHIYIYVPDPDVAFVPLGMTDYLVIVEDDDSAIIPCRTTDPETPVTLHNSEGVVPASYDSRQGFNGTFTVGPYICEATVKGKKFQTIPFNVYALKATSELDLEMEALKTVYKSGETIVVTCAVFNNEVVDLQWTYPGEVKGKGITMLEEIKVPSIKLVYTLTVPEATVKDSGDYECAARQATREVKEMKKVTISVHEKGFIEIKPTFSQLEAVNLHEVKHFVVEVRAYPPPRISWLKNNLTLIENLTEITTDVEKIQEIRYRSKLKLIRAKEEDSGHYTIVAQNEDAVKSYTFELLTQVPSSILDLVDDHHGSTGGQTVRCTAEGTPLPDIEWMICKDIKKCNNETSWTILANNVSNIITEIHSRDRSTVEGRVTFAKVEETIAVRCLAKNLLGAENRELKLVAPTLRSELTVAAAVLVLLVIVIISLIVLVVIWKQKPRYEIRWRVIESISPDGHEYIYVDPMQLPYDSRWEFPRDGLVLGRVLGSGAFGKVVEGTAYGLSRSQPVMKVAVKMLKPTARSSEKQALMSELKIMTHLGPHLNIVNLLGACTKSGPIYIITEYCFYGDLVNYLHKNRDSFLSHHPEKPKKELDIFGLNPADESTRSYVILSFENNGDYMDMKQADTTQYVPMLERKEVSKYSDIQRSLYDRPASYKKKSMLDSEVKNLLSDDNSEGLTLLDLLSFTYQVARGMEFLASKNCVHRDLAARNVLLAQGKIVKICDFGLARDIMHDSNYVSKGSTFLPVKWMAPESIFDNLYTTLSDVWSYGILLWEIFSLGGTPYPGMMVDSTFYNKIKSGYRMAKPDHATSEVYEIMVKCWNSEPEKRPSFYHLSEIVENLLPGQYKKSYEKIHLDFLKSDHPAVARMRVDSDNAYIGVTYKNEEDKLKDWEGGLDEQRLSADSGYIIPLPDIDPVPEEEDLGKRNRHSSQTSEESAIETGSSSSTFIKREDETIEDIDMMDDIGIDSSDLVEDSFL

[1] = tested on: OV-CAR-5 ovarian carcinoma xenograft; experiment: Subcutaneous tumor xenograft model; type: in vivo, mouse; conditions: for Tumor Volume T/C %: OVCAR-5 xenograft, monotherapy
Procedure: (§2) Six xenograft models, SK-OV-3, OV-CAR-8, BxPC-3, OV-CAR-5, Caki-1 and NCI-H460 (A to F, respectively) were used to examine the effects of 1B3 on xenograft tumors in athymic nude mice. Mice with established tumors (˜250-300 mm^3) were randomly grouped and treated with 1B3, normal human IgG, or saline by intraperitoneal injection twice weekly (except for BxPC-3 model where the mice were treated three times a week) at the dose indicated. Tumor volumes were measured twice a week and are presented as mean±SEM. *1 indicates the loss of one mouse due to severe illness. 1B3 binds to mouse, but not human, PDGFRβ. Accordingly, the observed responses to treatment result from inhibition of stimulation of host cells.
(§3) Antitumor activity of anti-mPDGFRβ antibody in tumor xenograft models. Six human xenograft tumor models, including three ovarian carcinoma (SK-OV-3, OV-CAR-5 and OV-CAR-8), one pancreatic carcinoma (BxPC3), one lung carcinoma (NCI-H460), and one kidney carcinoma (Caki-1), were used to assess the antitumor activity of 1B3 in vivo. Athymic (nu/nu) mice (female, 7-8 weeks of age) were housed for 7-10 days before xenograft implantation. Each mouse was injected subcutaneously with 3-10×10^6 cells of SK-OV-3, OVCAR-5, OVCAR-8, Caki-1, BxPC3 or NCI-H460 tumor cells. When tumors reached approximately 250-300 mm^3, mice were randomized into groups of 10 to 12 animals each and treated by intraperitoneal injection, 2 to 3 times per week, with 1B3, DC101, or 1B3 in combination with DC101. Human IgG and/or USP saline were used as control groups. Tumor sizes and mouse body weight were measured twice a week. Tumor volume was calculated using the formula: π/6×(length×width^2), where length=longest diameter and width=diameter perpendicular to length. The ratio of average tumor volume in the treatment group versus that in the control group (T/C %) was calculated. Statistic analysis was performed by Student's t-test.
(§4) To study the antitumor effects of monotherapy with an anti-PDGFRβ antibody, mice were treated with 1B3, normal human IgG, or saline twice weekly by intraperitoneal injections. In SK-OV-3 model, tumor-bearing mice were given 1B3 at 6, 20, or 60 mg/kg dose.
(§5) Antitumor activity of anti-PDGFRβ antibody in tumor xenograft models. The five human xenograft tumor models described above (OVCAR-5 and OVCAR-8, BxPC3, NCI-H460, and Caki-1) were used to assess the antitumor activity of 2C5 in vivo. 2C5 which binds to and inhibits human PDGFRβ receptors of the tumor and mouse receptors of the vasculature was compared to 1B3 which bound only to mouse vasculature. […] (FIG. 9; Table 2).

[2] = tested on: OV-CAR-8 ovarian carcinoma xenograft; experiment: Subcutaneous tumor xenograft model; type: in vivo, mouse; conditions: for Tumor Volume T/C %: OVCAR-8 xenograft, monotherapy
Procedure: as §2, §3, §4, §5

[3] = tested on: NCI-H460 lung carcinoma xenograft; type: in vivo; conditions: for Tumor Volume T/C %: NCI-H460 xenograft, monotherapy
Procedure: Six xenograft models, SK-OV-3, OV-CAR-8, BxPC-3, OV-CAR-5, Caki-1 and NCI-H460 (A to F, respectively) were used to examine the effects of 1B3 on xenograft tumors in athymic nude mice. Mice with established tumors (˜250-300 mm^3) were randomly grouped and treated with 1B3, normal human IgG, or saline by intraperitoneal injection twice weekly (except for BxPC-3 model where the mice were treated three times a week) at the dose indicated.
Subcutaneous xenografts of BxPC-3 (A) or 5×10^6 NCI-H460 (B) were established in female athymic (nu/nu) mice. When tumors reached ˜300-350 mm^3, mice were randomized and divided into four groups (n=12), and treated with USP saline, 40 mg/kg of 1B3, 40 mg/kg of DC101 or 40 mg/kg 1B3 plus 40 mg/kg DC101, three times a week.
as §3, with “Six” for “Antitumor activity of anti-mPDGFRβ antibody in tumor xenograft models. Six”
as §4
Athymic nude mice bearing xenografted tumors of 300-350 mm^3 size were randomized and divided into four treatment groups (n=12/group), and were treated by intraperitoneal injections three times a week with saline, 1B3 (40 mg/kg), DC101 (40 mg/kg), or 1B3 (40 mg/kg) plus DC101 (40 mg/kg).
The five human xenograft tumor models described above (OVCAR-5 and OVCAR-8, BxPC3, NCI-H460, and Caki-1) were used to assess the antitumor activity of 2C5 in vivo.

Molecule	Kd (mPDGFRβ; surface plasmon resonance, one experiment) [pM]	Kd (hPDGFRβ) [pM]	binding to human PDGFRα (human PDGFRα)	Tumor Volume T/C % [1] [%]	Tumor Volume T/C % [2] [%]	Tumor Volume T/C % [3] [%]	increase of affinity for mPDGFRβ of IgG over its Fab form (mPDGFRβ; BIAcore)	antitumor activity ([1]; OV-CAR-5, 40 mg/kg three times per week or 60 mg/kg twice weekly)	tumor growth inhibition ([2]; OV-CAR-8, 60 mg/kg i.p. twice weekly)	T/C % on day 22 post treatment ([3]; NCI-H460, 40 mg/kg each antibody i.p. three times a week) [%]	tumor growth inhibition ([3]; NCI-H460, 60 mg/kg i.p. twice weekly)
B1	60.5	13.6	does not bind	84	39	60					
B2		41.7	did not bind	92	43	60	approximately 57 times	failed to show any antitumor activity	almost completely blocked the growth	66	significantly slowed the growth
